This passage reports suppression of pKal activity (PFR-AMC fluorogenic kinetic enzymatic assay) results from patent US20240124890A1.

The target in the assay is activated human plasma kallikrein (Enzyme Research Laboratories) (human) (UniProt P03952). The assay can be described thus: cell-based or functional assay.
Chain of UniProt P03952 (P03952 20-638 limits assumed): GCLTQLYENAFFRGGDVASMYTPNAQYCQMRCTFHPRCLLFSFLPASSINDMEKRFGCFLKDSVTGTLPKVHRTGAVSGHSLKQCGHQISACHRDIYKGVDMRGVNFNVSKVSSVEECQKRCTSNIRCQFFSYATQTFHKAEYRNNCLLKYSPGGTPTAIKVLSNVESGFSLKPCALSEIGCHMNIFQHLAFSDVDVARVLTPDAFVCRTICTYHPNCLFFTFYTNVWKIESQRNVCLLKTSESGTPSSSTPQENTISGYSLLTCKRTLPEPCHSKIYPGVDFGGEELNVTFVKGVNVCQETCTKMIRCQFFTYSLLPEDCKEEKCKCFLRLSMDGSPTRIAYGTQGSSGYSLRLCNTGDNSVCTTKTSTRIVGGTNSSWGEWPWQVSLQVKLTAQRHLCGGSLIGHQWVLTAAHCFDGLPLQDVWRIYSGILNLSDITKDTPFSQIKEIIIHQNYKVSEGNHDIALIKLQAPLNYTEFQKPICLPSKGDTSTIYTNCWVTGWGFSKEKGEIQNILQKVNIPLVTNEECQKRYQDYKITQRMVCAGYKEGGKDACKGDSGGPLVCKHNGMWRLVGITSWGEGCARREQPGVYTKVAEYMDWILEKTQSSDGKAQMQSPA

“Therapeutic antibody (GenScript), human anti-pKal antibody (lanadelumab)” yielded a suppression of pKal activity (PFR-AMC fluorogenic kinetic enzymatic assay) of 0.1 nM.
